In the supplement of paper PMC11502859:

Each substance was assayed on HEK293T (assay: median enrichment of reporter reads in eGFP-reduced (low/intermediate) vs eGFP-high sorted cells (eGFP-extension fusion abundance) (ratio); higher = stronger loss of eGFP-fusion protein abundance (more destabilising extension)).
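Note: lentiviral eGFP-IRES-mCherry reporter pool sorted by FACS 96 h post-transduction, gated on mCherry-high cells, Illumina read counts normalized per million, median across four biological replicates.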

Row | Substance | median enrichment
1 | PARVSGPRSIENTTTMARWKGLLVPASSCPPWCRWPGQPTGLGTGQAGPGRGLSLGGNKSRPTRRCCSGSRCRCRDKSAAVSG [MLST8] | 9
2 | PCRHHPPPSPCPQPVCPVPCPPQAWWWQWRRLRRLKRLTGRGAFCLAHCPDDPPAPSRLQQQSPRRTGWTEEKEVDCCTHTER [SOX10] | 3.84
3 | PEPGWGISAGQRRRLSQLFPDIQGHCSLLPSRTSLLPPTMAGGEQVSQKHPVPRMVLCACPSLLGLPFPLLREDVSLLTCTLA [KIRREL1] | 4.27
4 | PGCLPCLPRPALVAPTALTVNPEAGSPANLWAESGESWWMRLRRRQEHLETGASWTGTLPLPGHRSSGGSNLRLNTRHPCSQK [TMEM91] | 3.37
5 | PGLTALRSARRARAETRVGCGELKEPIKSCSSTQNEPCSRHLPMLRDAWSVLGARPGAAACPTPPEEADPDRYLTTFFFFFFF [UQCC3] | 5.28
6 | PHAQSPPIPHAAPPQSQATSCLLLVGGGLLSPSSLTFNLTLTLHRAPTLHPSWKAGLMASHWPPPPDQSVLFRGLAPFPVSLK [LGALS9] | 5.55
7 | PKWNHLTSAAPDLPGRMPLPLPSSNPQTRTPFLPPQAGPAPGVGSALSTPRAPRPSEGAPAGASDTLQFRAVGGLGHIPVPWL [SECTM1] | 1.79
8 | PLAPALPTSSAWSEGAARAQQRRGGRLWPPTSRPVPAGTASPSAGRGSAPRKCLLCPGAERRCLLGAGLPPCGSCAPWPGPCP [ARHGAP39] | 1.98
9 | PLLNLDFCPNPLPVTRSISLSLLSNGAWSTEASEAIALLAEVKRTLSPHLRLPCVEPASVCPSFHCSQCQTWAAAPRRLRPNQ [SLC18A3] | 5.19
10 | PPP [Pro03] | 0.305
11 | PPPP [Pro04] | 0.659
12 | PPPPP [Pro05] | 0.529
13 | PPPPPP [Pro06] | 0.323
14 | PPPPPPP [Pro07] | 1.37
15 | PPPPPPPP [Pro08] | 1.83
16 | PPPPPPPPP [Pro09] | 3.45
17 | PPTTPHQATPAASAFLGAERQPRPPVPSPPSHHRSSAPGRTVWPLPVPAMGSGWTPWAPPIAKPGRQLSLVPASGQPRVSPAS [CAPN1] | 6.04
18 | PTASSLQVQLKPLSSGGRHVERAGRPTAAENRAGTGSSCSAFPSFGDAGSAAPKHLPAPHSTVSEDSSLLPVKLPCAGMAWTC [CDC14B] | 2.89
19 | PTVRPQRGQDKPCPDAFDRQLCVLVDRCRNKEEMESAPEKLQIQARREVLRKDLQQLHIHINQHNTGWRPNSGVHKRRRDVVG [H6PD] | 5.25
20 | PVGKGGGLRGRGWMPRAPKPPFPFVSKGVRSELRKRASECVSLEGLGALWCYHLETCLMPPCLPMEDRLQELGPCGNLACFGG [MTA2] | 6.97
21 | PWPHQWHRGAPATGWPSGQPEHQGHCQPAAEAGEQDRDRPQRALPGQPSGFLRDGGRAGGRWRGMVDVPKRCQRAAGFRILLC [DECR2] | 3.51
22 | PWTWYTSMWSCWARGVLCAVNSVGSCSGVGARFLPPWAEGPFPLVLCPHPPPFSCSWASALPRASQVLLGREGNGEKGEASSV [KLHDC3] | 6.21

Row | Substance | median enrichment
23 | QAASWRFEDAAFGLDEFQILLACFLILICLYTYTLCTKLFLIHGLLNPQMWSPWIRKARCTLNDK [B2M] | 11.1
24 | QAAVAPGDVCFIVPFFLLV [CCNB2] | 8.22
25 | QACPAVNLHLEP [SEC16A] | 0.624
26 | QALGKKDCNQRKSIGVEEIKLTLFWLFF [GLI3] | 25.8
27 | QALSIPM [IDH3B] | 0.815
28 | QAMPRPRT [CREB3L1] | 0.317
29 | QAPTLLLLALLPASVQRTGRYWWEALCLAPQLPVWASKHNGPSRSLVETGVVVPNLPSALPLHRTQRPQALQGVLVPAFPRTS [AMIGO3] | 1.8
30 | QAR [MMP10] | 0.457
31 | QATPAWPRSQDTGQGRPGPEELGAGPQT [APBA2] | 0.312
32 | QAVFNLLLNWVFLALILIINHNL [FAM47A] | 5.56
33 | QAVNSTFKVI [LMNTD1] | 0.803
34 | QCDSQCNNIKISFYIII [ASNSD1] | 4.36
35 | QCGSCDRGSSSAEPQTVLPCSMCLKAQGDIPLGWPLPPP [DIAPH1] | 1.17
36 | QCHLLSPTTP [PPY] | 0.404
37 | QCITECGHQPRAAW [FOXJ2] | 0.515
38 | QCL [ADGRG6] | 0.557
39 | QCLCRIKCLLFYMHILKEKQRPEPRRG [RIOX2] | 4.27
40 | QCLPERVVRWCHVGEQVSFRTQRRPPFCK [ACTR3B] | 5.17
41 | QCLWPSILISLMRILLALLSLVGICQAQCFNLKLILCFRCQSRYQQPFDPTTALYILVEDFHPCAWKRCSWYIVKK [TCEAL3] | 10.4
42 | QCMSLV [CCDC6] | 0.689
43 | QCPN [LRRC3B] | 0.337
44 | QCR [CCDC73] | 0.362

Row | Substance | median enrichment
45 | QCVSRCQ [SPG21] | 0.894
46 | QCYLVSF [TRMT10A] | 4.82
47 | QDFMHSSERVTVTTVLSPISHKLLFVSKRMLLLLHCFPFAGTCWCLLLNWPALLAVWHCSLGRLLCSLYLHYRLVNLPTSSL [DCUN1D4] | 6.12
48 | QDFRSICKCLFFIIALYIVCYLTR [DDX5] | 10.2
49 | QDGWGWR [SCPEP1] | 0.778
50 | QDLSIF [KCNJ13] | 0.364
51 | QDPVVLFESLRP [HAVCR1] | 0.393
52 | QDSQLHRRLLPGLLLGRPPACPPCVSTPPARLPAGPSTPCVHTTSNLIGADVFIFLEFLFML [DDA1] | 7.88
53 | QDTERRTYSRNGLVQSQSPPL [CFAP157] | 0.332
54 | QDTVNSSSKILACKHPLKFKRGKIKYNEF [ANKRD30BL] | 1.66
55 | QEATDRVSLVIRSQRFTI [ITM2A] | 15.6
56 | QEDFKVNFPSLFLN [CSN2] | 0.654
57 | QEGPGGPAVLSPAPLGGVW [GALNT2] | 0.738
58 | QEGQDLYSRLVQQRLMD [TAP2] | 0.376
59 | QEHPHDIAFGGAPVACRIACGLCNLLRFKTDGHMCQWGSLSPGPKKQGTKFKTLASSQPLKPWPPEFPFLSLSFYFFYFYFYF [JAK3] | 7.54
60 | QEITRWHQPRALARYGEGTWGPHLPPGLFREDPTVTPPSAVGAWRWAAGLNPPWGAPFLLPICVYIHK [MEF2B] | 5.36
61 | QEKAIWDLITLNRHANTVCVRALCIQ [PCDH9] | 6.25
62 | QELARQLPLLHPQ [TECTB] | 0.3
63 | QELSERCSIPFPHGKAK [ASXL3] | 0.227
64 | QELTQQKRTASIPHAFTHQIILKNSDPQVF [TOR3A] | 13.3
65 | QELVGSLRTPVLLTPSF [TSNAXIP1] | 2.24
66 | QEMWSLRCLKSTTMPGIEEDYYLKQWALVFGASDMPSILPSWN [G6PC] | 10.6

Row | Substance | median enrichment
67 | QENKNCRK [MRPL13] | 0.366
68 | QEPHALKKTWEDMVAWNCHPRIPC [ZIM3] | 3.53
69 | QESKSTLPSHHHGPTGYPEQLHTLLEVSRSLPA [ADAMTSL1] | 2.98
70 | QESSPPAHQGQDTWLGADAGPDVAEDSRAGRARGGGGGGGGGRRRRSRPLPTTSRRRRGARAEEPGTGDS [C6orf223] | 0.3
71 | QESSSRGTEDWGQEESGTQPSCPLTPGRPSPHPRVPQSYPLSACVARPDKHLQMAAAPTWDLPRRLEQKGLSLGWCFSSRVLG [TMEM141] | 3.62
72 | QEWKSGSSRYSFMLCSCEQSTKFE [LMLN] | 7.78
73 | QFCPPVTPVSGTRNPQHALMLCF [DNMT1] | 4.79
74 | QFDNKAEGLSSNMVAFF [ACSM4] | 0.317
75 | QFKELKIHMHEP [WDR41] | 1.3
76 | QFLC [BEST3] | 0.953
77 | QFLGLFEYSIPMGIYFLSCH [HHIP] | 13.7
78 | QFLQDTVPLPFFDQLSLVASSLHKM [FCF1] | 14.2
79 | QFPTSELGNCTHSNPACSAS [MAS1L] | 0.296
80 | QGAGPWMVPVCLALGMAVEGTWQKQPHVLPCPRPGVDKTRGVFWSPPAELEASHCNFSAQGLLNRCERPVPRVSL [SLC6A13] | 14.4
81 | QGDL [DPYD] | 0.394
82 | QGGDF [KIF16B] | 0.225
83 | QGHACAPMGFLFSFFFFLVGGVGGLD [PRKACA] | 5.49
84 | QGIQGTAL [CXorf26] | 0.941
85 | QGLEGQEVGVRSPYSACCPGCAAQLDSASQHLPPRSFLLFIPIFTPKTSLSLFTPPKPLSHAGPLKPQLPTILREHPLPSLPF [GSTM2] | 5.62
86 | QGLQKNWPWGTKAFFSGLLPRP [KANK4] | 4.85
87 | QGNPRSNQGGGS [POLA1] | 0.576
88 | QGNWALPHVFLLPPRDSNDMYSHLGHACLPNTIWSWTTFDTNQSYWTRPLEDLKYTSHAVVYLGCDSLSNAALGKDESDLQGE [APOBEC2] | 6.1

Row | Substance | median enrichment
89 | QGPAPRTDSTRKPNDVPARRPRRAAFPLVLEKLEHPVTALFAMGTGTLFYTMLPPSPP [CARM1] | 3.47
90 | QGPGLRREALSQRLPHPSPLAFNSVASCSPAAEPPRIRLHVTLKLTNFHGPH [FYN] | 20.4
91 | QGPPNLIAGHSQPSESESRFLLSLPSSPLETQLLSQVRQWAGSCFISLSLSIPLCLVSLPLVSAWQPPPPTYHPSPITQVNVT [PGLYRP4] | 3.73
92 | QGQVICSLSAFTPFNSLTPCQTYLSGTSSPDTFQRREKK [CREBZF] | 4.04
93 | QGSYGIPPRSARA [CDKN2A] | 5.31
94 | QGTCPGSS [UBE2T] | 0.477
95 | QGVSLSLSFCIICLAECVYRLPKFTKKL [VNN2] | 10.5
96 | QHEKDWGGQGGQPAEMRGAGGHSPFSGLDPLRSSPTSCTDNAL [MAP3K9] | 0
97 | QHGETPSLLKIQKKLARHGGGRL [FBLIM1] | 0.0978
98 | QHGGFGS [AKAIN1] | 0.844
99 | QHLPEETPLPTLPERGSLRTGWRRWGPSRAPGALPGMSRPTHPKAGAAAPCCPSPGLGNDDPPKSPSAPQTQGLRPPAPGIRE [FXYD7] | 0.759
100 | QHLQEEEEKEGTPDWI [GPR158] | 1.29
101 | QHLVQQ [IFNA13] | 0.328
102 | QHQ [ANKRD6] | 0.522
103 | QHTQNSLTRTISFCKGF [KRR1] | 1.62
104 | QHWGRLPHPASGKPVAGHRVVPPVPS [SCLY] | 11
105 | QHYS [C4BPB] | 0.456
106 | QICIIQAYLVKQTHIMGLGNIYLSKFAITDLGFFPFFEGKFNYIALLFFPLRDSLLGKCFLRTKI [CHMP5] | 4.31
107 | QIKLAVRNAKSC [RBMX] | 6.47
108 | QIL [TMEM244] | 0.849
109 | QIQGHK [RILPL2] | 0.367
